Where a chain is given by its changes, count along the chain named. No end group written: not given here. TMR = tetramethylrhodamine-5-maleimide
Experiments:
[1] = target: T1, HMGA2Δ95–108 (mouse, UniProt P52927 1-94); assay: SEC; CTP-TMR incubated with HMGA2Δ95–108 for 30 minutes at 24°C, resolved on Sephacryl S-100 HR (1×50 cm) in BPES buffer; OD556 and SDS-PAGE of fractions; details: both partners purified
T1 construct: also called mutant that lacks the negatively charged C-terminus; source: made by PCR-based site directed mutagenesis, purified as described previously [26]
T1 sequence (looked up): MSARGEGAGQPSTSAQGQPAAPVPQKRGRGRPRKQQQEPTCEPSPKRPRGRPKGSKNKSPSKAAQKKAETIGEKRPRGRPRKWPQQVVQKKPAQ

[2] = target: the molecule itself; assay: cross-linking; EDC (2 mM, zero-length) in MES buffer (10 mM MES, pH 5.5, 50 mM NaCl), 2 hours at 24°C; 29-116 μM protein; 15% SDS-PAGE, Coomassie
[3] = target: the molecule itself; assay: cross-linking; EDC cross-linking of the cysteineless mutant; data not shown
[4] = target: the molecule itself; assay: FRET or BRET; 20 nM HMGA2-FM titrated with HMGA2-TMR in 50 mM Tris-HCl (pH 8.0), 200 mM NaCl; excitation 492 nm, read at 518 nm

B1: C-terminal peptide (CTP) of HMGA2 labeled with tetramethylrhodamine-5-maleimide (CTP-TMR) (peptide)
peptide: C(TMR)ETEETSSQESAEED
notes: first residue of the printed peptide H-CETEETSSQESAEED-OH; the cysteine that carries the label; the negatively charged C-terminus of HMGA2, mouse; 14 residues; also called the C-terminal peptide; source: synthetic peptide (custom-synthesized by Advanced ChemTech, Inc.), labeled with TMR, purified on SP-sepharose
B1: binds [1].

B2: mammalian high mobility group protein AT-hook 2 (HMGA2) (natural protein, mouse, UniProt P52927 1-108, looked up)
chain: MSARGEGAGQPSTSAQGQPAAPVPQKRGRGRPRKQQQEPTCEPSPKRPRGRPKGSKNKSPSKAAQKKAETIGEKRPRGRPRKWPQQVVQKKPAQETEETSSQESAEED
notes: also called mouse HMGA2; recombinant HMGA2; source: recombinant, purified as described previously [26]
With B2 the “stoichiometry N” value [2] was 2.

B3: HMGA2C41G (natural protein, mouse, UniProt P52927 1-108, looked up)
chain: B2 chain with C41G
notes: also called cysteineless mutant protein; source: made by PCR-based site directed mutagenesis, purified as described previously [26]
For B3, the “stoichiometry N” value [3] was 2.

B4: HMGA2 labeled with fluorescein-5-maleimide (HMGA2-FM) or tetramethylrhodamine-5-maleimide (HMGA2-TMR) (natural protein, mouse, UniProt P52927 1-108, looked up)
chain: B2 chain
modifications: fluorescein-5-maleimide (FM) or tetramethylrhodamine-5-maleimide (TMR) on the cysteine residue
notes: labeled at its one cysteine residue; also called HMG-TMR; source: recombinant HMGA2, labeled with TMR or FM, purified (Sephadex G-50 spin columns, dialysis)
In the case of B4, the “stoichiometry N” value [4] is reported as 2.

Reference: publication PMC4482583, “The Dimerization State of the Mammalian High Mobility Group Protein AT-Hook 2 (HMGA2)” (PLoS ONE, 2015)
